How the values were obtained:
HeLa Kyoto [1] = experiment: solubility in G1/S (NP-40 vs SDS abundance) (log2 ratio); higher = more soluble; conditions: cell cycle stage: G1/S
HeLa Kyoto [2] = experiment: solubility change mitosis vs G1/S (difference of NP-40 vs SDS log2 ratios) (log2 ratio difference); higher = more soluble in mitosis
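For solubility change mitosis vs G1/S (difference of NP-40 vs SDS log2 ratios) in this document: synchronized HeLa Kyoto cells (double thymidine block for G1/S, nocodazole release for mitosis), protein amounts in NP-40 versus SDS lysates quantified by mass spectrometry, three biological replicates.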
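For solubility in G1/S (NP-40 vs SDS abundance) in this document: HeLa Kyoto cells arrested at G1/S by double thymidine block, proteins quantified by TMT10plex mass spectrometry in mild NP-40 versus SDS extracts, three biological replicates.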

| Sequence | solubility in G1/S (log2) (HeLa Kyoto [1]) | solubility change mitosis (log2) (HeLa Kyoto [2]) |
| --- | --- | --- |
| MGATGDAEQPRGPSGAERGGLELGDAGAAGQLVLTNPWNIMIKHRQVQRRGRRSQMTTSFTDPAISMDLLRAVLQPSINEEIQTVFNKYMKFFQKAALNVRDNVGEEVDAEQLIQEACRSCLEQAKLLFSDGEKVIPRLTHELPGIKRGRQAEEECAHRGSPLPKKRKGRPPGHILSSDRAAAGMVWKPKSCEPIRREGPKWDPARLNESTTFVLGSRANKALGMGGTRGRIYIKHPHLFKYAADPQDKHWLAEQHHMRATGGKMAYLLIEEDIRDLAASDDYRGCLDLKLEELKSFVLPSWMVEKMRKYMETLRTENEHRAVEAPPQT [DNTTIP1] | 0.512 | -0.0131 |
| MGCAPSIHISERLVAEDAPSPAAPPLSSGGPRLPQGQKTAALPRTRGAGLLESELRDGSGKKVAVADVQFGPMRFHQDQLQVLLVFTKEDNQCNGFCRACEKAGFKCTVTKEAQAVLACFLDKHHDIIIIDHRNPRQLDAEALCRSIRSSKLSENTVIVGVVRRVDREELSVMPFISAGFTRRYVENPNIMACYNELLQLEFGEVRSQLKLRACNSVFTALENSEDAIEITSEDRFIQYANPAFETTMGYQSGELIGKELGEVPINEKKADLLDTINSCIRIGKEWQGIYYAKKKNGDNIQQNVKIIPVIGQGGKIRHYVSIIRVCNGNNKAEKISECVQSDTHTDNQTGKHKDRRKGSLDVKAVASRATEVSSQRRHSSMARIHSMTIEAPITKVINIINAAQESSPMPVTEALDRVLEILRTTELYSPQFGAKDDDPHANDLVGGLMSDGLRRLSGNEYVLSTKNTQMVSSNIITPISLDDVPPRIARAMENEEYWDFDIFELEAATHNRPLIYLGLKMFARFGICEFLHCSESTLRSWLQIIEANYHSSNPYHNSTHSADVLHATAYFLSKERIKETLDPIDEVAALIAATIHDVDHPGRTNSFLCNAGSELAILYNDTAVLESHHAALAFQLTTGDDKCNIFKNMERNDYRTLRQGIIDMVLATEMTKHFEHVNKFVNSINKPLATLEENGETDKNQEVINTMLRTPENRTLIKRMLIKCADVSNPCRPLQYCIEWAARISEEYFSQTDEEKQQGLPVVMPVFDRNTCSIPKSQISFIDYFITDMFDAWDAFVDLPDLMQHLDNNFKYWKGLDEMKLRNLRPPPE [PDE8A] | -0.192 | -0.222 |
| MGELCRRDSALTALDEETLWEMMESHRHRIVRCICPSRLTPYLRQAKVLCQLDEEEVLHSPRLTNSAMRAGHLLDLLKTRGKNGAIAFLESLKFHNPDVYTLVTGLQPDVDFSNFSGLMETSKLTECLAGAIGSLQEELNQEKGQKEVLLRRCQQLQEHLGLAETRAEGLHQLEADHSRMKREVSAHFHEVLRLKDEMLSLSLHYSNALQEKELAASRCRSLQEELYLLKQELQRANMVSSCELELQEQSLRTASDQESGDEELNRLKEENEKLRSLTFSLAEKDILEQSLDEARGSRQELVERIHSLRERAVAAERQREQYWEEKEQTLLQFQKSKMACQLYREKVNALQAQVCELQKERDQAYSARDSAQREISQSLVEKDSLRRQVFELTDQVCELRTQLRQLQAEPPGVLKQEARTREPCPREKQRLVRMHAICPRDDSDCSLVSSTESQLLSDLSATSSRELVDSFRSSSPAPPSQQSLYKRVAEDFGEEPWSFSSCLEIPEGDPGALPGAKAGDPHLDYELLDTADLPQLESSLQPVSPGRLDVSESGVLMRRRPARRILSQVTMLAFQGDALLEQISVIGGNLTGIFIHRVTPGSAADQMALRPGTQIVMVDYEASEPLFKAVLEDTTLEEAVGLLRRVDGFCCLSVKVNTDGYKRLLQDLEAKVATSGDSFYIRVNLAMEGRAKGELQVHCNEVLHVTDTMFQGCGCWHAHRVNSYTMKDTAAHGTIPNYSRAQQQLIALIQDMTQQCTVTRKPSSGGPQKLVRIVSMDKAKASPLRLSFDRGQLDPSRMEGSSTCFWAESCLTLVPYTLVRPHRPARPRPVLLVPRAVGKILSEKLCLLQGFKKCLAEYLSQEEYEAWSQRGDIIQEGEVSGGRCWVTRHAVESLMEKNTHALLDVQLDSVCTLHRMDIFPIVIHVSVNEKMAKKLKKGLQRLGTSEEQLLEAARQEEGDLDRAPCLYSSLAPDGWSDLDGLLSCVRQAIADEQKKVVWTEQSPR [CARD14] | -0.00296 | 0.0129 |
| MGEPSREEYKIQSFDAETQQLLKTALKDPGAVDLEKVANVIVDHSLQDCVFSKEAGRMCYAIIQAESKQAGQSVFRRGLLNRLQQEYQAREQLRARSLQGWVCYVTFICNIFDYLRVNNMPMMALVNPVYDCLFRLAQPDSLSKEEEVDCLVLQLHRVGEQLEKMNGQRMDELFVLIRDGFLLPTGLSSLAQLLLLEIIEFRAAGWKTTPAAHKYYYSEVSD [MIF4GD] | 0.085 | 0.238 |
| MGFWCRMSENQEQEEVITVRVQDPRVQNEGSWNSYVDYKIFLHTNSKAFTAKTSCVRRRYREFVWLRKQLQRNAGLVPVPELPGKSTFFGTSDEFIEKRRQGLQHFLEKVLQSVVLLSDSQLHLFLQSQLSVPEIEACVQGRSTMTVSDAILRYAMSNCGWAQEERQSSSHLAKGDQPKSCCFLPRSGRRSSPSPPPSEEKDHLEVWAPVVDSEVPSLESPTLPPLSSPLCCDFGRPKEGTSTLQSVRRAVGGDHAVPLDPGQLETVLEK [SNX11] | 0.38 | -0.17 |
| MGIWQRLLLFGGVSLRAGGGATAPLGGSRAMVCGRQLSGAGSETLKQRRTQIMSRGLPKQKPIEGVKQVIVVASGKGGVGKSTTAVNLALALAANDSSKAIGLLDVDVYGPSVPKMMNLKGNPELSQSNLMRPLLNYGIACMSMGFLVEESEPVVWRGLMVMSAIEKLLRQVDWGQLDYLVVDMPPGTGDVQLSVSQNIPITGAVIVSTPQDIALMDAHKGAEMFRRVHVPVLGLVQNMSVFQCPKCKHKTHIFGADGARKLAQTLGLEVLGDIPLHLNIREASDTGQPIVFSQPESDEAKAYLRIAVEVVRRLPSPSE [NUBPL] | 0.45 | 0.138 |
| MGKAKVPASKRAPSSPVAKPGPVKTLTRKKNKKKKRFWKSKAREVSKKPASGPGAVVRPPKAPEDFSQNWKALQEWLLKQKSQAPEKPLVISQMGSKKKPKIIQQNKKETSPQVKGEEMPAGKDQEASRGSVPSGSKMDRRAPVPRTKASGTEHNKKGTKERTNGDIVPERGDIEHKKRKAKEAAPAPPTEEDIWFDDVDPADIEAAIGPEAAKIARKQLGQSEGSVSLSLVKEQAFGGLTRALALDCEMVGVGPKGEESMAARVSIVNQYGKCVYDKYVKPTEPVTDYRTAVSGIRPENLKQGEELEVVQKEVAEMLKGRILVGHALHNDLKVLFLDHPKKKIRDTQKYKPFKSQVKSGRPSLRLLSEKILGLQVQQAEHCSIQDAQAAMRLYVMVKKEWESMARDRRPLLTAPDHCSDDA [REXO4] | -0.936 | 0.875 |
| MGKSCKVVVCGQASVGKTSILEQLLYGNHVVGSEMIETQEDIYVGSIETDRGVREQVRFYDTRGLRDGAELPRHCFSCTDGYVLVYSTDSRESFQRVELLKKEIDKSKDKKEVTIVVLGNKCDLQEQRRVDPDVAQHWAKSEKVKLWEVSVADRRSLLEPFVYLASKMTQPQSKSAFPLSRKNKGSGSLDG [NKIRAS2] | -0.133 | -0.0114 |
| MGLSTVPDLLLPLVLLELLVGIYPSGVIGLVPHLGDREKRDSVCPQGKYIHPQNNSICCTKCHKGTYLYNDCPGPGQDTDCRECESGSFTASENHLRHCLSCSKCRKEMGQVEISSCTVDRDTVCGCRKNQYRHYWSENLFQCFNCSLCLNGTVHLSCQEKQNTVCTCHAGFFLRENECVSCSNCKKSLECTKLCLPQIENVKGTEDSGTTVLLPLVIFFGLCLLSLLFIGLMYRYQRWKSKLYSIVCGKSTPEKEGELEGTTTKPLAPNPSFSPTPGFTPTLGFSPVPSSTFTSSSTYTPGDCPNFAAPRREVAPPYQGADPILATALASDPIPNPLQKWEDSAHKPQSLDTDDPATLYAVVENVPPLRWKEFVRRLGLSDHEIDRLELQNGRCLREAQYSMLATWRRRTPRREATLELLGRVLRDMDLLGCLEDIEEALCGPAALPPAPSLLR [TNFRSF1A] | -0.165 | -0.132 |

From the supplement of paper PMC5998384
